Publication PMC7133768
Where a chain is given by its changes, count along the chain named. Names may count otherwise.

B1: EgtBCth (Cabther_A1318) (Chloracidobacterium thermophilum B; A420Y/D52L) (protein)
chain: EAARSHPEPIQSGEVSDRKAWQRHYRAVRAVSEAICQPLETEDYVVQPMPLVSPPKWHLGHTSWFFETFILKSGLADYRPFHPRYDYIFNSYYEAVGARHPRPQRGLLTRPTVSEVYAYRAHVDAAVERFIAHSDTRTWAALQPILELGLHHEQQHQELLLTDIKAILATNPLDPVYRPQPQPLPSPVEQLSPTGDWHIVEGGRYAIGHAGRGFAFDNEGPRHDVLLRPCRIAARPVTNGEFLAFMADGGYRRPELWLSDGWAAVTARGWEAPLYWRQAADGTWETLTLHGVQPVAPYEPVCHISFYEADAYARWAGKRLPTEAEWEVVAARLPVTGNFYESGVLHPRPVSVSAAFYGDVWVWTASPYVGYPGFRPVSGALGEYNGKFMCNQMVLRGGSCATSLTHIRSTYRNFFPPDYRWQFTGVRLAEDMS
B2: EgtBCth (Cabther_A1318) (Chloracidobacterium thermophilum B; D52L) (protein)
chain: B1 chain with Y419A
B3: EgtBCth (Cabther_A1318) (Chloracidobacterium thermophilum B) (protein)
chain: B1 chain with L51D, Y419A
B4: EgtBCth (Cabther_A1318) (Chloracidobacterium thermophilum B; A420Y) (protein)
chain: B1 chain with L51D

Columns and labels:
Assay in all cases: oxygen consumption assay
Assay type in all cases: biochemical, Chloracidobacterium thermophilum
[1] = substrate: C[N+](C)(C)[C@@H](Cc1cnc[nH]1)C(=O)[O-]; settings: co-substrate L-Cys
[2] = substrate: N[C@@H](CS)C(=O)O; settings: co-substrate hercynine
[3] = substrate: N[C@@H](CCC(=O)N[C@@H](CS)C(=O)O)C(=O)O; settings: co-substrate hercynine

Row | Protein | Km [1] [µM] | kcat [1] [s⁻¹] | kcat/Km [1] [M⁻¹ s⁻¹] | Km [2] [µM] | kcat [2] [s⁻¹] | kcat/Km [2] [M⁻¹ s⁻¹] | Km ([1]; Fe(II) enzyme) [µM] | kcat/Km [3] [M⁻¹ s⁻¹]
1 | B1 | 23.3 ± 1.2 | 0.545 ± 0.005 | 23300 ± 1170 | 48.7 ± 3.5 | 0.545 ± 0.005 | 11200 ± 667 |  | 
2 | B2 | 13.2 ± 1.3 |  |  | 47.3 ± 2.4 |  |  |  | 
3 | B3 |  |  |  | 205 ± 18 |  | 2170 ± 167 | 87.7 ± 7.6 | 50 ± 8.33
4 | B4 | 39.2 ± 1.6 |  | 11700 ± 500 | 28.1 ± 1.8 |  | 16300 ± 1000 |  | 
